Data reported in patent publication US9724426B2, “Agents, uses and methods” (AFFINICON APS, priority 2009, dated 2017).

What was measured:
[1] = target: T1, CD163 on peripheral blood dendritic cells (Homo sapiens, UniProt Q86VB7); assay: Flow cytometry of CD163 expression on peripheral blood dendritic cells; format: cell-based; details: CD14-ILT3+HLA-DR+ dendritic cells
T1 construct: endogenous in cells; host or cells: human peripheral blood monocytes, monocyte-derived macrophages, blood dendritic cells
T1 sequence (Q86VB7 42-1156): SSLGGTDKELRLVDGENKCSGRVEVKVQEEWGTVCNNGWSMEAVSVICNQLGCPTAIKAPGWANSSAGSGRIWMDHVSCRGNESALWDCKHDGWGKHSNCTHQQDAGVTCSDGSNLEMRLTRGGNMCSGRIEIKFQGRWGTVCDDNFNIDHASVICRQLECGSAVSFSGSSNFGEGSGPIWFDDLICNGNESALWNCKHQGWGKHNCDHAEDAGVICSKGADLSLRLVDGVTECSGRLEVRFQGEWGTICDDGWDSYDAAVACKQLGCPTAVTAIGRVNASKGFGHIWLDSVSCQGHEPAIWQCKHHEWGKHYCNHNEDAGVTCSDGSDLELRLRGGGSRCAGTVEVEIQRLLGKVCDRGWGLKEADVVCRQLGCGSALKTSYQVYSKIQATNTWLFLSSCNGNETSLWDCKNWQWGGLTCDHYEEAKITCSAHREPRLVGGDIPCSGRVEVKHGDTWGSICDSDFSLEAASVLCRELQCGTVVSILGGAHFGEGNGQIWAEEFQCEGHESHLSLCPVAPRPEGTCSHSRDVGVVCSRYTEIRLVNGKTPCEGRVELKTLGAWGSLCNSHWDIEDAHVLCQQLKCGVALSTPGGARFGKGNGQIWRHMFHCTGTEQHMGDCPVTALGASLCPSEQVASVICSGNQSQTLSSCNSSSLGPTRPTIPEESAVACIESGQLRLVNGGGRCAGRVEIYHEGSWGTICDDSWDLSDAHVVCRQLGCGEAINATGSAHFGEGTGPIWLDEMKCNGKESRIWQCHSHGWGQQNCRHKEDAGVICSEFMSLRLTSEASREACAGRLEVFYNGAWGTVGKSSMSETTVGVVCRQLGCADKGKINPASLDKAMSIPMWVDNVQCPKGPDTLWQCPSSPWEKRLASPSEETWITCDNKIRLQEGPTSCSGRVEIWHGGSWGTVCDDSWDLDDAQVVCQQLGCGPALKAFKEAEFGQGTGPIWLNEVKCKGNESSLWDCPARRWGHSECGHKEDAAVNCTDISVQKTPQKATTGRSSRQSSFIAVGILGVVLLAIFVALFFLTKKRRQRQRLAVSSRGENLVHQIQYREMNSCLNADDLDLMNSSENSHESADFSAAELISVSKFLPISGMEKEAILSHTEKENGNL
Text: Freshly drawn peripheral whole blood samples (approx. 3×10^6 cells) were stained with isotype-matched control antibody (Mouse IgG1 PE, k isotype control, MOPC-21, BD Pharmingen™, San Diego, Calif., USA) or a relevant antibody (anti-CD3 FITC, UCHT1, BD Biosciences, San Diego, Calif., USA; anti-CD11c FITC, KB90, DAKO A/S, Glostrup, Denmark; anti-CD14 FITC, RMO52, IOTests®, Beckman and Coulter, Marseille, France; anti-CD16 FITC, 3G8, BD Biosciences, San Diego, Calif., USA; anti-CD19 FITC, SJ25C1, BD Biosciences, San Diego, Calif., USA; anti-CD20 FITC, CAT 13.6E12, Diatec.com A/S, Oslo, Norway; anti-CD56 FITC, NCAM16.2, BD Biosciences, San Diego, Calif., USA; anti-CD91 FITC, A2MR-a2, BD Biosciences, San Diego, Calif.; anti-HLA-DR FITC, EDU-1, Diatec.com A/S, Oslo, Norway; anti-CD163 PE, MAC2-158, IQ Products, Groningen, The Netherlands; anti-CD163 PE, GHI/61, BD Biosciences, CA, USA; anti-ILT3/CD85k PE-Cy5, ZM3.8, IOTests®, Beckman and Coulter, Marseille, France; anti-HLA-DR PerCP, L234, BD Biosciences, San Diego, Calif.; anti-CD4 APC, EDU-2, Diatec.com A/S, Oslo, Norway; anti-CD14 APC, 18D11, Diatec.com A/S, Oslo, Norway) for 15 minutes at room temperature in the dark. […] For CD163 density quantitation, flow cytometric estimation of antibodies bound/cell (ABCs) was performed using Quantibrite PE beads (Becton Dickinson, San Jose, Calif., USA) as recommended by the manufacturer. […]

[2] = target: T2, CD163 receptor on surface of human macrophages (Homo sapiens, UniProt Q86VB7); assay: Binding and uptake of fluorescently labeled CD163 antibodies in monocyte-derived macrophages; format: cell-based; details: 0 min; macrophages stimulated with 200 nM dexamethasone
T2 construct: endogenous in cells; host or cells: human peripheral blood monocytes, monocyte-derived macrophages, blood dendritic cells
T2 sequence (Q86VB7 42-1156): as above
Procedure: Monocytes were isolated from PBMC by negative selection using magnetic beads from Dynal (Dynabeads® MyPure™ Monocyte Kit 2; Invitrogen A/S, Taastrup, Denmark) according to instructions provided by the manufacturer. Monocyte preparations were more than 95% (CD14^+) pure determined by flow cytometry. The isolated cells were washed twice with phosphate-buffered saline. Monocyte-derived macrophages (MDMs) were prepared by cell culture of monocytes (approximately 1×10^7 cells) for 4 days in 5% CO2 and 37° C. in RPMI 1640 media (RPMI 1640+25 mM HEPES+I-glutamine) (Invitrogen Corporation, Carlsbad, Calif., USA) with 20% FCS containing 100 ng/ml of M-CSF. MDMs were then detached from the flask by incubation with cell dissociation buffer (Invitrogen A/S, Taastrup, Denmark) for 30 minutes at 40 °C, then flushed, and scraped. […]
MDMs or CHO cells were washed with 4° C. cold D-PBS, pH 7.4, containing 1% BSA in Lab-Tek™ Chamber Slides (Thermo Fisher Scientific, Roskilde, Denmark). […] Fluorescence was visualized using a Zeiss Axiovert 200M microscope (Carl Zeiss GmbH, Jena, Germany) with an ×100 oil-immersion objective. […] Alternatively, immunostained cells were analyzed by confocal immunofluorescence microscopy using a Zeiss LSM-510 confocal microscope (Carl Zeiss GmbH, Jena, Germany). […]

B1: Mac2-158: murine anti-human CD163 mAb binding SRCR domain 1; VH SEQ ID NO:20, VL SEQ ID NO:21; IQ Products (antibody, V domains shown)
VH: DVQLQESGPGLVKPSQSLSLTCTVTGYSITSDYAWNWIRQFPGNKLEWMGYITYSGITNYNPSLKSQISITRDTSKNQFFLQLNSVTTEDTATYYCVSGTYYFDYWGQGTTLTVSS
VL: SVVMTQTPKSLLISIGDRVTITCKASQSVSSDVAWFQQKPGQSPKPLIYYASNRYTGVPDRFTGSGYGTDFTFTISSVQAEDLAVYFCGQDYTSPRTFGGGTKLEIKRA
modifications: Mac2-158 VH sequence; Mac2-158 VL sequence
notes: IQ Products
- fraction of peripheral blood dendritic cells recognized as CD163 expressing [1]: 32.3%
- cell surface staining (immunofluorescence) [2]: pronounced cell surface staining
